Experimental data reported in patent publication EP4803139A2 (Amgen Inc., dated 2026).

Target: T1, PCSK2 (R&D Systems) (UniProt P16519 26-638, limits assumed)
T1 sequence (looked up): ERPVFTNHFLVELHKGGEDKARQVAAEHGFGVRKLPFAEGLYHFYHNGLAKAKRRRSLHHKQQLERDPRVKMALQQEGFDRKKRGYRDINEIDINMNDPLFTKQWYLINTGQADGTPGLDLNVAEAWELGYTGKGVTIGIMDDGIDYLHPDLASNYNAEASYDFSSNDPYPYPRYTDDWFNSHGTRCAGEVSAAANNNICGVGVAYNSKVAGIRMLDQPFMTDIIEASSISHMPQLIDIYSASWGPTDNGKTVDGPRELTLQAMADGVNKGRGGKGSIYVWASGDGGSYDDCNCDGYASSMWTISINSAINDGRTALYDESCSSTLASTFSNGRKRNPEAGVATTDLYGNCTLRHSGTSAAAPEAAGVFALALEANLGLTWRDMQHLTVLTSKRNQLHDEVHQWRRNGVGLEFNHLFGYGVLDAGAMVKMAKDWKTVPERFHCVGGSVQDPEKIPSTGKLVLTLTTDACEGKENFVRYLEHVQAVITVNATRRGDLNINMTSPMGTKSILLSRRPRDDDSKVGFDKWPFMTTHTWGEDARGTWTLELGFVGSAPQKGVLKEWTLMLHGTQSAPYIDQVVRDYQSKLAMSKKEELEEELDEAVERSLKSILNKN
Experiment: competition ELISA: 0.4 µg/mL 11F1 pre-incubated with the convertase in solution, then binding to plate-captured biotinylated PCSK9

binding result: no binding (tested: 0 to 20 µg/mL)
B1: 11F1, anti-PCSK9 antibody (antibody, V domains shown)
VH: EVQLVESGGGLVQPGGSLRLSCAASGFTFSNYWMSWVRQAPGKGLEWVASIKQDGSEKYYVDSVKGRFAISRDNAKNSLFLQMNSLRAEDTAVYYCARDLVLMVYDIDYYYYGMDVWGQGTTVTVSS
VL: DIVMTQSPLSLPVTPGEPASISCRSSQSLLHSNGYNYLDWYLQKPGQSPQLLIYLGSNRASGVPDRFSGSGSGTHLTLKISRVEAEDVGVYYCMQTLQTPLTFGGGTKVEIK
